From patent US20240279281A1, “Peptide Inhibitors of Interleukin-23 Receptor” (Janssen Pharmaceutica NV, priority 2023, published 2024)
Starred links: 1 amine or outer side, 2 acyl side, 3 side chain; linkers in the order of their positions; H or OH if unused. Positions of bridges follow the written chain, without caps; N, C: chain ends. Non-standard residues stand in square brackets, D forms with d. No end group written: not given here. X1 = 3‑(7-(3-acetamidophenyl)-1H-indol-3-yl)‑2‑aminopropanoic acid, CC(=O)Nc1cccc(-c2cccc3c(CC(N[*:1])C(=O)[*:2])c[nH]c23)c1; X3 = 4‑(2-(4-(2-amino-2-carboxyethyl)phenoxy)ethyl)‑4‑methylmorpholin‑4‑ium, C[N+]1(CCOc2ccc(CC(N[*:1])C(=O)[*:2])cc2)CCOCC1; 2Nal(6-OH) = N[C@@H](Cc1ccc2cc(O)ccc2c1)C(=O)O; Trp(7-Me) = Cc1cccc2c(C[C@H](N)C(=O)O)c[nH]c12; d(hLys(Me3)) = C[N+](C)(C)CCCCC[C@@H](N)C(=O)O; AEF = NCCOc1ccc(C[C@H](N)C(=O)O)cc1; 3Pal = N[C@@H](Cc1cccnc1)C(=O)O; Pen = CC(C)(S)[C@H](N)C(=O)O; Thp = NC1(C(=O)O)CCOCC1; Sar = CNCC(=O)O

T1: interleukin-23 receptor (IL-23R), Q5VWK5
T1 chain: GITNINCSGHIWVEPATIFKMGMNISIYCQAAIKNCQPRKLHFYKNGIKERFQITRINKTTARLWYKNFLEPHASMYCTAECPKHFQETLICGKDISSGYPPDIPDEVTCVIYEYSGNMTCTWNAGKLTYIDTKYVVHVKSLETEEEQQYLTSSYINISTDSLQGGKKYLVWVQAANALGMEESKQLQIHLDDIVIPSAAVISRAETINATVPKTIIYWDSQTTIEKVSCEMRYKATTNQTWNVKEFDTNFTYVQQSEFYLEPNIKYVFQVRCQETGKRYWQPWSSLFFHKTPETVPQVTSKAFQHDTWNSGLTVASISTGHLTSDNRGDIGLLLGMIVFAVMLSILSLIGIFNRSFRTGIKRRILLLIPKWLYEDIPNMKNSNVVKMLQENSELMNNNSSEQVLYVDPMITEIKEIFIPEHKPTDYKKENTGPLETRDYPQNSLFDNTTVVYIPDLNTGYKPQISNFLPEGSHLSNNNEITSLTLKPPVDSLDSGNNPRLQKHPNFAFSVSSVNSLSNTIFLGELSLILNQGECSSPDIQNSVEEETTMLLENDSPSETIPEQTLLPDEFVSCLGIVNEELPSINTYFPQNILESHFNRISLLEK

B1: SEQ ID NO: 142 (peptide)
peptide: R[Pen]ET[Trp(7-Me)]K(Ac)[Pen][2‑amino‑3‑(4-(2-aminoethoxy)phenyl)propanoic acid][2‑amino‑3‑(6-hydroxynaphthalen-2-yl)propanoic acid][Thp]EN[3Pal][Sar]K
modifications: disulfide 2-7 (inferred); ends not checked; also: Lys15: lipidated lysine, lipid not given here
B2: SEQ ID NO: 153 (peptide)
peptide: [Pen]NT[X1]K(Ac)[Pen][2‑amino‑3‑(4-(2-aminoethoxy)phenyl)propanoic acid][2‑amino‑3‑(6-hydroxynaphthalen-2-yl)propanoic acid][Thp]KN[3Pal][Sar]
modifications: disulfide 1-6 (inferred); ends not checked; also: K10: lipidated lysine, lipid not given here
B3: SEQ ID NO: 150 (peptide)
peptide: R[Pen]KT[X1]K(Ac)[Pen][2‑amino‑3‑(4-(2-aminoethoxy)phenyl)propanoic acid][2‑amino‑3‑(6-hydroxynaphthalen-2-yl)propanoic acid][Thp]EN[3Pal][Sar]
modifications: disulfide 2-7 (inferred); ends not checked; also: Lys3: lipidated lysine, lipid not given here
B4: SEQ ID NO: 140 (peptide)
peptide: R[Pen]ET[Trp(7-Me)]K[Pen][AEF][2Nal(6-OH)][Thp]EN[3Pal][Sar]
modifications: disulfide 2-7 (inferred); ends not checked; also: K6: lipidated lysine, lipid not given here
B5: SEQ ID NO: 129 (peptide)
peptide: [Pen]NT[Trp(7-Me)]K(Ac)[Pen][AEF][2Nal(6-OH)][Thp]KN[3Pal][Sar]
modifications: disulfide 1-6 (inferred); ends not checked; also: K10: lipidated lysine, lipid not given here
B6: SEQ ID NO: 139 (peptide)
peptide: [Pen]NT[Trp(7-Me)]K(Ac)[Pen][AEF][2Nal(6-OH)][Thp]K(Ac)N[3Pal][Sar]K
modifications: disulfide 1-6 (inferred); ends not checked; also: K14: lipidated lysine, lipid not given here
B7: SEQ ID NO: 156 (peptide)
peptide: R[Pen]NT[X1]K(Ac)[Pen][2‑amino‑3‑(4-(2-aminoethoxy)phenyl)propanoic acid][2‑amino‑3‑(6-hydroxynaphthalen-2-yl)propanoic acid][Thp]EN[3Pal][Sar]K
modifications: disulfide 2-7 (inferred); ends not checked; also: K15: lipidated lysine, lipid not given here
B8: SEQ ID NO: 131 (peptide)
peptide: [Pen]NT[Trp(7-Me)]K[Pen][AEF][2Nal(6-OH)][Thp]K(Ac)N[3Pal][Sar]
modifications: disulfide 1-6 (inferred); ends not checked; also: K5: lipidated lysine, lipid not given here
B9: SEQ ID NO: 148 (peptide)
peptide: R[Pen]ET[Trp(7-Me)]K(Ac)[Pen][2‑amino‑3‑(4-(2-aminoethoxy)phenyl)propanoic acid][2‑amino‑3‑(6-hydroxynaphthalen-2-yl)propanoic acid][Thp]EN[3Pal][Sar]K
modifications: disulfide 2-7 (inferred); ends not checked; also: Lys15: lipidated lysine, lipid not given here
B10: SEQ ID NO: 147 (peptide)
peptide: R[Pen]ET[Trp(7-Me)]K(Ac)[Pen][2‑amino‑3‑(4-(2-aminoethoxy)phenyl)propanoic acid][2‑amino‑3‑(6-hydroxynaphthalen-2-yl)propanoic acid][Thp]EN[3Pal][Sar]K
modifications: disulfide 2-7 (inferred); ends not checked; also: Lys15: lipidated lysine, lipid not given here
B11: SEQ ID NO: 128 (peptide)
peptide: [Pen]NT[Trp(7-Me)]K(Ac)[Pen][AEF][2Nal(6-OH)][Thp]KN[3Pal][Sar]
modifications: disulfide 1-6 (inferred); ends not checked; also: K10: lipidated lysine, lipid not given here

Target: T1, interleukin-23 receptor (IL-23R), Q5VWK5
Experiment: cell-based or functional assay

Binder	PBMC pSTAT3 IC50
R[Pen]NT[X1]K(Ac)[Pen][X3][2‑amino‑3‑(6-hydroxynaphthalen-2-yl)propanoic acid][Thp]EN[3Pal][Sar] (disulfide 2-7 (inferred); ends not checked) [SEQ ID NO: 161]	< 0.01 nM
B1	< 0.1 nM
B2	< 0.1 nM
B3	< 1 nM
K[Pen]ET[Trp(7-Me)]K(Ac)[Pen][AEF][2Nal(6-OH)][Thp]K(Ac)N[3Pal][Sar] (disulfide 2-7 (inferred); ends not checked) [SEQ ID NO: 134]	< 1 nM
R[Pen]ET[Trp(7-Me)]K(Ac)[Pen][AEF][2Nal(6-OH)][Thp]EN[3Pal][Sar] (disulfide 2-7 (inferred); ends not checked) [SEQ ID NO: 141]	< 0.1 nM
B4	< 1 nM
B5	< 1 nM
B6	< 0.1 nM
B7	< 1 nM
R[Pen]NT[X1]K(Ac)[Pen][2‑amino‑3‑(4-(2-aminoethoxy)phenyl)propanoic acid][2‑amino‑3‑(6-hydroxynaphthalen-2-yl)propanoic acid][Thp]EN[3Pal][Sar] (disulfide 2-7 (inferred); ends not checked) [SEQ ID NO: 151]	< 1 nM
B8	< 1 nM
B9	< 0.1 nM
B10	< 1 nM
[(R)‑2‑(2-(3-((5-carboxy-5-hydrazineylpentyl)amino)-3-oxopropoxy)ethoxy)‑N,N,N‑trimethylethan‑1‑aminium][Pen]NT[Trp(7-Me)]K(Ac)[Pen][2‑amino‑3‑(4-(2-aminoethoxy)phenyl)propanoic acid][2‑amino‑3‑(6-hydroxynaphthalen-2-yl)propanoic acid][Thp]EN[3Pal][Sar] (disulfide 2-7 (inferred); ends not checked) [SEQ ID NO: 145]	< 0.1 nM
B11	< 1 nM
[d(hLys(Me3))][Pen]NT[Trp(7-Me)]K(Ac)[Pen][2‑amino‑3‑(4-(2-aminoethoxy)phenyl)propanoic acid][2‑amino‑3‑(6-hydroxynaphthalen-2-yl)propanoic acid][Thp]EN[3Pal][Sar] (disulfide 2-7 (inferred); ends not checked) [SEQ ID NO: 144]	< 1 nM
